Data from PMC11480844 (2024).

B1: H2-Kb / Ed39 (parent complex)
chain 1: GEQVEQRPPHLSVREGDSAVIICTYTDPNSYYFFWYKQEPGAGLQLLMKVFSSTEINEGQGFTVLLNKKDKQLSLNLTAAHPGDSAVYFCATMSNYNVLYFGSGTKLTVEP
chain 2: GALVYQYPRRTICKSGTSMRMECQAVGFQATSVAWYRQSPQKTFELIALSTVNSAIKYEQNFTQEKFPISHPNLSFSSMTVLNAYLEDRGLYLCGARDGSYEQYFGPGTRLTVL
chain 3: not shown
chain 4: IQKTPQIQVYSRHPPENGKPNILNCYVTQFHPPHIEIQMLKNGKKIPKVEMSDMSFSKDWSFYILAHTEFTPTETDTYACRVKHDSMAEPKTVYWDRDM
chain 5: SIINFEKL
B2: H2-Kb / Ed33 (parent complex)
chain 1: SQLAEENSWALSVHEGESVTVNCSYKTSITALQWYRQKSGKGPAQLILIRSNEREKRNGRLRATLDTSSQSSSLSITATRCEDTAVYFCATDHNNAGAKLTFGGGTRLTVRP
chain 2: DAGVTQTPRHEVAEKGQTIILKCEPVSGHNDLFWYRQTKIQGLELLSYFRSKSLMEDGGAFKDRFKAEMLNSSFSTLKIQPTEPKDSAVYLCASSLYTNQAPLFGEGTRLSVL
chain 3: not shown
chain 4: B1 chain 4
chain 5: SIINFEKL

Variants of: B1
Test: % of reporter cells activated (NFAT-GFP), raw
Further: test concentration or dose not given here.

Row | Variant | ratio to parent
1 | chain 5 E6F | 0.00457
2 | chain 5 E6M | 0.0331
3 | chain 5 E6G | 0.00768
4 | chain 5 E6V | 0.0176
5 | chain 5 E6W | 0.00837
6 | chain 5 E6L | 0.0111
7 | chain 5 E6S | 0.0298
8 | chain 5 E6K | 0.308
9 | chain 5 E6P | 0.00676
10 | chain 5 K7C | 0.331
11 | chain 5 K7N | 0.0309
12 | chain 5 K7M | 0.665
13 | chain 5 K7P | 0.326
14 | chain 5 K7E | 0.00639
15 | chain 5 K7D | 0.00558
16 | chain 5 K7G | 0.0989
17 | chain 5 K7H | 0.0199
18 | chain 5 F5T | 0.844
19 | chain 5 F5H | 0.791
20 | chain 5 F5S | 0.829
21 | chain 5 F5C | 0.689
22 | chain 5 F5Y | 0.867
23 | chain 5 F5Q | 0.712
24 | chain 5 F5R | 0.562
25 | chain 5 F5G | 0.454
26 | chain 5 F5L | 0.765
27 | chain 5 F5W | 0.738

Row | Variant | ratio to parent
28 | chain 5 F5K | 0.374
29 | chain 5 F5N | 0.484
30 | chain 5 F5P | 0.281
31 | chain 5 I3S | 0.12
32 | chain 5 I3W | 0.472
33 | chain 5 I3E | 0.558
34 | chain 5 I3G | 0.156
35 | chain 5 I3T | 0.416
36 | chain 5 I3K | 0.286
37 | chain 5 I3M | 0.564
38 | chain 5 I3A | 0.56
39 | chain 5 I3H | 0.0308
40 | chain 5 I3Q | 0.3
41 | chain 5 I3L | 0.706
42 | chain 5 I2P | 0.58
43 | chain 5 I2E | 0.719
44 | chain 5 I2G | 0.841
45 | chain 5 I2L | 1.03
46 | chain 5 I2F | 0.683
47 | chain 5 I2C | 0.926
48 | chain 5 I2T | 0.781
49 | chain 5 I2W | 0.453
50 | chain 5 I2S | 0.779
51 | chain 5 I2K | 0.396
52 | chain 5 I2N | 0.18
53 | chain 5 I2M | 0.907

Second part, the variant after the results:

Row | ratio to parent | Variant
54 | 0.462 | chain 5 L8S
55 | 0.483 | chain 5 L8C
56 | 0.64 | chain 5 L8F
57 | 0.703 | chain 5 L8T
58 | 0.83 | chain 5 L8Y
59 | 0.663 | chain 5 L8A
60 | 0.771 | chain 5 L8I
61 | 0.801 | chain 5 L8R
62 | 0.788 | chain 5 L8H
63 | 0.676 | chain 5 L8G
64 | 0.762 | chain 5 L8M
65 | 0.591 | chain 5 L8V
66 | 0.0798 | chain 5 S1H
67 | 0.00689 | chain 5 S1N
68 | 0.00419 | chain 5 S1L
69 | 0.00514 | chain 5 S1F
70 | 0.00338 | chain 5 S1I
71 | 0.0616 | chain 5 S1R
72 | 0.351 | chain 5 S1Y
73 | 0.00499 | chain 5 S1M

Row | ratio to parent | Variant
74 | 0.0243 | chain 5 S1V
75 | 0.272 | chain 5 S1G
76 | 0.0783 | chain 5 S1K
77 | 0.865 | chain 5 K7Q
78 | 0.293 | chain 5 K7S
79 | 0.115 | chain 5 K7V
80 | 0.359 | chain 5 K7T
81 | 0.355 | chain 5 K7W
82 | 0.0483 | chain 5 K7Y
83 | 0.355 | chain 5 K7R
84 | 0.00338 | chain 5 N4Q
85 | 0.0119 | chain 5 N4F
86 | 0.22 | chain 5 N4R
87 | 0.00879 | chain 5 N4M
88 | 1.25 | chain 5 N4D
89 | 0.114 | chain 5 N4G
90 | 0.00838 | chain 5 N4I
91 | 0.0243 | chain 5 N4A
92 | 0.124 | chain 5 N4H
93 | 0.106 | chain 5 N4E

Variants of: B2
Test: % of reporter cells activated (NFAT-GFP), raw

Row | Variant | ratio to parent
94 | chain 5 K7F | 0.0757
95 | chain 5 K7M | 0.0938
96 | chain 5 K7I | 0.018
97 | chain 5 K7A | 0.227
98 | chain 5 F5E | 0.625
99 | chain 5 F5R | 0.982
100 | chain 5 F5N | 0.876
101 | chain 5 F5G | 0.844
102 | chain 5 F5C | 1.05
103 | chain 5 F5K | 0.862
104 | chain 5 F5Q | 1.01
105 | chain 5 I3D | 0.634
106 | chain 5 I3T | 1.04
107 | chain 5 I3H | 0.895
108 | chain 5 I3M | 1.07
109 | chain 5 I2T | 0.981

Row | Variant | ratio to parent
110 | chain 5 I2F | 0.774
111 | chain 5 I2L | 1.05
112 | chain 5 I2D | 0.897
113 | chain 5 I2N | 1.01
114 | chain 5 I2R | 0.807
115 | chain 5 I2V | 1.04
116 | chain 5 E6H | 0.223
117 | chain 5 E6N | 0.00413
118 | chain 5 E6Y | 0.182
119 | chain 5 E6R | 0.00434
120 | chain 5 E6M | 0.0967
121 | chain 5 E6V | 0.0218
122 | chain 5 E6W | 0.0137
123 | chain 5 E6C | 0.0452
124 | chain 5 E6F | 0.101
125 | chain 5 E6P | 0.0303

More lines, now with the values ahead:

Row | ratio to parent | Variant
126 | 0.427 | chain 5 K7V
127 | 0.0157 | chain 5 K7Q
128 | 0.74 | chain 5 K7W
129 | 0.372 | chain 5 K7P
130 | 0.754 | chain 5 K7S
131 | 0.157 | chain 5 K7Y
132 | 0.0234 | chain 5 N4F
133 | 0.0904 | chain 5 N4C
134 | 0.428 | chain 5 N4L
135 | 0.135 | chain 5 N4D
136 | 0.000438 | chain 5 N4P
137 | 0.91 | chain 5 S1Q
138 | 0.182 | chain 5 S1W
139 | 0.173 | chain 5 S1N
140 | 0.48 | chain 5 S1G
141 | 0.121 | chain 5 S1K
142 | 1.05 | chain 5 S1D
143 | 0.634 | chain 5 S1H
144 | 0.846 | chain 5 L8P
145 | 0.905 | chain 5 L8N
146 | 0.881 | chain 5 L8W
147 | 1.01 | chain 5 L8Y
148 | 0.941 | chain 5 L8K
149 | 0.968 | chain 5 L8H
150 | 0.731 | chain 5 L8D
